Numbering of substitutions follows the chain as printed. Names may count otherwise.
Key:
T0 soybean plants = assay: greenhouse spray test of T0 soybean plants for tolerance to mesotrione; format: in vivo; details: 316 grams AI per hectare; for Number of T0 soybean plants with herbicide tolerance rating 0 (completely bleached) / Number of T0 soybean plants with herbicide tolerance rating 1 (slight tolerance) / Number of T0 soybean plants with herbicide tolerance rating 2 (moderate tolerance) / Number of T0 soybean plants with herbicide tolerance rating 3 (nearly perfect tolerance): HT-triple plant expression cassette, mesotrione 3X field rate, seven days after treatment
Method: T0 soybean plants expressing an HPPD inhibitor tolerant enzyme of the present invention, along with a gene conferring tolerance to glyphosate and a gene conferring tolerance to glufosinate or having a “plant expression cassette”, which includes only an HPPD inhibitor tolerant enzyme of the present invention, were tested for tolerance to mesotrione. Prior greenhouse trials with the transgenic plants, soy transformants were routinely analyzed for the expression and presence of the transgenes using the ELISA protein detection method (see detailed description under item D and H). Only plants recovering in the selection media and having a detectable HPPD transgene protein expression were used for the herbicide tolerance analysis. A DeVries Tracker Sprayer was calibrated prior to each spraying. The chemical formulation used for mesotrione (MST) testing was Callisto® 4 SC formulation supplemented with ammonium sulfate and methylated rape seed oil (Actirob). Spray tests were conducted using 3× the field rate (equivalent to 9 fluid ounce per acre of the same herbicide formulation that containing 40% the active ingredient (AI), mesotrione), which equals 316 grams AI per hectare. Tolerance was evaluated one week after spraying. […] A tolerance rating of “0” was assigned to plants that their shoot apexes, newly emerged trifoliates and some axillary buds were completely bleached. A rating of “1” was assigned to plants having slight tolerance, i.e., the newest plant shoot tissues had some green leaves and are not bleached completely. A rating of “2” was assigned to plants showing moderate tolerance, i.e., more than 50% of the leaf area of the top three trifoliates showing no chlorosis or bleaching damage. A rating of “3” was assigned to plants showing nearly perfect tolerance, i.e., less than 10% of the leaf area showing chlorosis or very slight bleaching.

[1] = test system: Pseudomonas fluorescens HPPD protein; assay: OD assay: HPPD activity and pI50 from HPP remaining after derivatisation with DNP; format: biochemical; details: for Activity DeltaE/24 min μg Protein: HPPD enzyme activity of the clone; for tolerance (pI50) Cmpd. 2: inhibitor Cmpd. 2; for tolerance (pI50) DKN: inhibitor diketonitrile (DKN), negative log of molar concentration; for tolerance (pI50) MST: inhibitor mesotrione (MST); for tolerance (pI50) TBT: inhibitor tembotrione (TBT)
Method in brief: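 pI50 values for Pseudomonas fluorescens HPPD come from two room-temperature formats. The coupled HGD assay continuously follows maleylacetoacetate at 318 nm (pH 7.6 Tris, 600 μM HPP, FeSO4, ascorbate, catalase, inhibitor up to 100 μM) and classifies inhibition type from time-dependence. The endpoint OD assay measures unconsumed 0.5 mM HPP after 24 min via DNP hydrazone at 405 nm (pH 7.8), testing 5.0×10^−6–5.0×10^−4 M inhibitor.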

[2] = test system: Pseudomonas fluorescens HPPD protein; assay: HGD assay: HPPD activity coupled to HGA dioxygenase, pI50 and type of inhibition (time-course); format: biochemical; details: for tolerance (pI50) Cmpd. 1: inhibitor Cmpd. 1; for tolerance (pI50) Cmpd. 1 / tolerance (pI50) Cmpd. 2 / tolerance (pI50) Cmpd. 3 / tolerance (pI50) Cmpd. 4 / tolerance (pI50) Cmpd. 5 / tolerance (pI50) DKN / tolerance (pI50) MST / tolerance (pI50) TBT: HGD assay; for tolerance (pI50) Cmpd. 2: inhibitor Cmpd. 2; for tolerance (pI50) Cmpd. 3: inhibitor Cmpd. 3; for tolerance (pI50) Cmpd. 4: inhibitor Cmpd. 4; for tolerance (pI50) Cmpd. 5: inhibitor Cmpd. 5; for tolerance (pI50) DKN: inhibitor diketonitrile (DKN); for tolerance (pI50) MST: inhibitor mesotrione (MST); for tolerance (pI50) TBT: inhibitor tembotrione (TBT)
Method: HPPD proteins were produced and purified as described in WO2011/076882. The activity of HPPD proteins in absence or presence of HPPD inhibitors was determined using either the so called OD assay or the HGD assay.
• a) The OD assay: The HPPD activity was determined colourimetrically by measuring the amount of HPP remaining in the assay mixture at the end of the incubation period after derivatisation of HPP with 2,4-dinitrophenylhydrazine (DNP) to form an amber-brown colored 2,4-dinitrophenylhydrazone under alkaline conditions. The assay was carried out at room temperature in Greiner F-bottom 96 well microplates. The assay mixture contained 50 mM Tris-HCl pH 7.8, 0.5 mM HPP, 10 mM ascorbate, 650 units of catalase and appropriate amounts of purified HPPD enzyme in a total assay volume of 100 μl. The reaction was started by the addition of enzyme. After an incubation time of 24 minutes, the reaction was stopped by the addition of 50 μl of a solution of 0.04% DNP dissolved in 3.8 N HCl. After a further 15-minute incubation period 100 μl of a 5 N KOH solution was added to the reaction mixture and the amount of unconsumed HPP was measured photometrically at 405 nm. Enzyme activity was calculated as the difference in E405 between assays lacking enzyme (negative control) and the enzyme containing assays (ΔE405=E405(negative control)−E405). Enzyme activity (nmol substrate consumed per min) was calculated from a calibration curve generated from HPP. pI50-values (the negative log value of the concentration of inhibitor necessary to inhibit 50% of the enzyme activity in molar concentration were determined from dose-response plots of HPPD activity versus inhibitor concentration tested (5.0×10^−6, 1.0×10^−5, 2.5×10^−5, 4.0×10^−5, 7.0×10^−5, 1.0×10^−4, 2.0×10^−4 and 5.0×10^−4M) using the 4 Parameter Logistic Model or Sigmoidal Dose-Response Model of the ID Business Solutions Ltd. XLfit software suite. The result “>5.6” means that the inhibition at the lowest inhibitor concentration tested was higher than 85% and the pI50-value could therefore not be precisely calculated within in the range of concentration of inhibitor tested. The result “<2.5” means that the inhibition at the highest inhibitor concentration tested was lower than 25% and the pI50-value could therefore not be precisely calculated within in the range of concentration of inhibitor tested. “n.d.” means not determined. • b) The HGD assay: With the HGD assay HPPD activity was measured at room temperature by adding appropriate amounts of HPPD to a solution of 200 mM Tris-HCl pH 7.6, 10 mM ascorbate, 20 μM FeSO4, 650 units of catalase, 8 μg HGA dioxygenase (HGA: homogentisate) and 600 μM HPP in a total volume of 1 ml. Initial reaction rates in the absence or presence of inhibitors were determined from the increase in absorbance at 318 nm due to the formation of maleylacetoacetate (ε318=11,900 M−1 cm-1). pI50-values (the negative log value of the concentration of inhibitor necessary to inhibit 50% of the enzyme activity in molar concentration were determined from dose-response plots of HPPD activity versus inhibitor concentration tested using the 4 Parameter Logistic Model or Sigmoidal Dose-Response Model of the ID Business Solutions Ltd. XLfit software suite. Due to the UV absorption of the HPPD inhibitors tested, inhibitor concentrations >100 μM could not be tested. The result “<4” means that the inhibition at 100 μM inhibitor concentration was lower than 25% and the pI50-value could therefore not be precisely calculated within in the range of concentration of inhibitor tested. “n.d.” means not determined. The HGD assay allowed to continuously follow HPPD-catalyzed HGA formation over time was therefore used to determine the inhibition type of the HPPD inhibitors tested. […] When in the presence of an inhibitor the HPPD activity was inhibited but the inhibition was found not to […] in a time-dependent manner, the inhibitor was called reversible (abbreviation “rev”). […]

Molecule: CS(=O)(=O)c1ccc(C(=O)C2C(=O)CCCC2=O)c([N+](=O)[O-])c1 [mesotrione, 2-[4-(methylsulfonyl)-2-nitrobenzoyl]-1,3-cyclohexanedione, reference compound]
- leaf damage of wild type soybean plants (T0 soybean plants; Callisto 4 SC formulation, 3× field rate, one week after spraying): 100%

B1: FLP129: PfHPPD variant E335P, G336F, K339A, A340Q (protein)
chain: MADLYENPMGLMGFEFIEFASPTPGTLEPIFEIMGFTKVATHRSKNVHLYRQGEINLILNNEPNSIASYFAAEHGPSVCGMAFRVKDSQKAYNRALELGAQPIHIDTGPMELNLPAIKGIGGAPLYLIDRFGEGSSIYDIDFVYLEGVERNPVGAGLKVIDHLTHNVYRGRMVYWANFYEKLFNFREARYFDIKGEYTGLTSKAMSAPDGMIRIPLNEESSKGAGQIEEFLMQFNGEGIQHVAFLTDDLVKTWDALKKIGMRFMTAPPDTYYEMLEGRLPDHGEPVDQLQARGILLDGSSVEGDKRLLLQIFSETLMGPVFFEFIQRKGDDGFGPFNFAQLFESIERDQVRRGVLTAD
modifications: HPPD variant - FLP129
notes: PfHPPD variant E335P, G336F, K339A, A340Q
- Activity DeltaE/24 min μg Protein [1]: 0.36 DeltaE/24 min μg Protein
- tolerance (pI50) Cmpd. 2 [1]: 5.4
- tolerance (pI50) DKN [1]: 3.3
- tolerance (pI50) MST [1]: 3.7
- tolerance (pI50) TBT [1]: 4.8
- Number of T0 soybean plants with herbicide tolerance rating 0 (completely bleached) (T0 soybean plants): 13
- Number of T0 soybean plants with herbicide tolerance rating 1 (slight tolerance) (T0 soybean plants): 18
- Number of T0 soybean plants with herbicide tolerance rating 2 (moderate tolerance) (T0 soybean plants): 35
- Number of T0 soybean plants with herbicide tolerance rating 3 (nearly perfect tolerance) (T0 soybean plants): 12
- mechanism of inhibition by diketonitrile (DKN), time-course of inhibition [2]: fully reversible inhibitors
- mechanism of inhibition by mesotrione (MST), time-course of inhibition [2]: fully reversible inhibitors
- mechanism of inhibition by tembotrione (TBT), time-course of inhibition [2]: fully reversible inhibitors
- tolerance (pI50) Cmpd. 1 [2]: 6.1
- tolerance (pI50) Cmpd. 2 [2]: 5.8
- tolerance (pI50) Cmpd. 3 [2]: 5.9
- tolerance (pI50) Cmpd. 4 [2]: 6.6
- tolerance (pI50) Cmpd. 5 [2]: 6.1
- tolerance (pI50) DKN [2]: 4.6
- tolerance (pI50) MST [2]: 5.0
- tolerance (pI50) TBT [2]: 6.2

B2: FLP130: PfHPPD variant E335P, G336F, A340E (protein)
chain: B1 chain with A339K, Q340E
modifications: HPPD variant - FLP130
notes: PfHPPD variant E335P, G336F, A340E
- Activity DeltaE/24 min μg Protein [1]: 0.39 DeltaE/24 min μg Protein
- tolerance (pI50) Cmpd. 2 [1]: 5.5
- tolerance (pI50) DKN [1]: 3.2
- tolerance (pI50) MST [1]: 3.7
- tolerance (pI50) TBT [1]: 4.8
- Number of T0 soybean plants with herbicide tolerance rating 0 (completely bleached) (T0 soybean plants): 3
- Number of T0 soybean plants with herbicide tolerance rating 1 (slight tolerance) (T0 soybean plants): 18
- Number of T0 soybean plants with herbicide tolerance rating 2 (moderate tolerance) (T0 soybean plants): 39
- Number of T0 soybean plants with herbicide tolerance rating 3 (nearly perfect tolerance) (T0 soybean plants): 11
- mechanism of inhibition by diketonitrile (DKN), time-course of inhibition [2]: fully reversible inhibitors
- mechanism of inhibition by mesotrione (MST), time-course of inhibition [2]: fully reversible inhibitors
- mechanism of inhibition by tembotrione (TBT), time-course of inhibition [2]: fully reversible inhibitors
- tolerance (pI50) Cmpd. 1 [2]: 6.2
- tolerance (pI50) Cmpd. 2 [2]: 6.2
- tolerance (pI50) Cmpd. 3 [2]: 6.4
- tolerance (pI50) Cmpd. 4 [2]: 6.6
- tolerance (pI50) Cmpd. 5 [2]: 6.0
- tolerance (pI50) DKN [2]: 4.3
- tolerance (pI50) MST [2]: 5.3
- tolerance (pI50) TBT [2]: 6.2

Reference: patent US10400249B2, “HPPD variants and methods of use” (priority 2014, dated 2019)
